# Reference: publication PMC7954794, “Protein context shapes the specificity of SH3 domain-mediated interactions in vivo” (Nature Communications, 2021)
# B1: BOI1 (protein, UniProt P38041 1-980, looked up)
# BEM1-interacting protein 1: MSLEGNTLGKGAKSFPLYIAVNQYSKRMEDELNMKPGDKIKVITDDGEYNDGWYYGRNLRTKEEGLYPAVFTKRIAIEKPENLHKSPTQESGNSGVKYGNLNDSASNIGKVSSHQQENRYTSLKSTMSDIDKALEELRSGSVEQEVSKSPTRVPEVSTPQLQDEQTLIQEKTRNEENTTHDSLFSSTADLNLSSESLKNISKSNISTKSLEPSSESVRQLDLKMAKSWSPEEVTDYFSLVGFDQSTCNKFKEHQVSGKILLELELEHLKELEINSFGIRFQIFKEIRNIKSAIDSSSNKLDADYSTFAFENQAAQLMPAATVNRDEIQQQISSKCNKLSSESSDRKSSSVTTELQRPSSVVVNPNFKLHDPAEQILDMTEVPNLFADKDIFESPGRAPKPPSYPSPVQPPQSPSFNNRYTNNNARFPPQTTYPPKNKNPTVYSNGLIPNSSTSSDNSTGKFKFPAMNGHDSNSRKTTLTSATIPSINTVNTDESLPAISNISSNATSHHPNRNSVVYNNHKRTESGSSFVDLFNRISMLSPVKSSFDEEETKQPSKASRAVFDSARRKSSYGHSRDASLSEMKKHRRNSSILSFFSSKSQSNPTSPTKQTFTIDPAKMTSHSRSQSNSYSHARSQSYSHSRKHSLVTSPLKTSLSPINSKSNIALAHSETPTSSNNKEAVSQPSEGKHKHKHKHKSKHKHKNSSSKDGSSEEKSKKKLFSSTKESFVGSKEFKRSPSELTQKSTKSILPRSNAKKQQTSAFTEGIRSITAKESMQTADCSGWMSKKGTGAMGTWKQRFFTLHGTRLSYFTNTNDEKERGLIDITAHRVLPASDDDRLISLYAASLGKGKYCFKLVPPQPGSKKGLTFTEPRVHYFAVENKSEMKAWLSAIIKATIDIDTSVPVISSYATPTIPLSKAQTLLEEARLQTQLRDAEEEEGRDQFGWDDTQNKRNSNYPIEQDQFETSDYLESSAFEYPGGRL
# B2: WT (protein, UniProt P15891 2-592, looked up)
# Actin-binding protein: ALEPIDYTTHSREIDAEYLKIVRGSDPDTTWLIISPNAKKEYEPESTGSSFHDFLQLFDETKVQYGLARVSPPGSDVEKIIIIGWCPDSAPLKTRASFAANFAAVANNLFKGYHVQVTARDEDDLDENELLMKISNAAGARYSIQTSSKQQGKASTPPVKKSFTPSKSPAPVSKKEPVKTPSPAPAAKISSRVNDNNDDDDWNEPELKERDFDQAPLKPNQSSYKPIGKIDLQKVIAEEKAKEDPRLVQKPTAAGSKIDPSSDIANLKNESKLKRDSEFNSFLGTTKPPSMTESSLKNDDDKVIKGFRNEKSPAQLWAERKAKQNSGNAETKAEAPKPEVPEDEPEGEPDVKDLKSKFEGLAASEKEEEEMENKFAPPPKKSEPTIISPKPFSKPQEPVKAEEAEQPKTDYKKIGNPLPGMHIEADNEEEPEENDDDWDDDEDEAAQPPLPSRNVASGAPVQKEEPEQEEIAPSLPSRNSIPAPKQEEAPEQAPEEEIEEEAEEAAPQLPSRSSAAPPPPPRRATPEKKPKENPWATAEYDYDAAEDNELTFVENDKIINIEFVDDDWWLGELEKDGSKGLFPSNYVSLGN
# Tested on: Abp1 PPIs
# Test: DHFR-PCA of Abp1 SH3-swapped baits (Fig. 2B-D, S2C, S2F);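 on Protein-protein interaction distance between Abp1 SH3-swapped baits, to ABP1: Euclidean distance between DHFR-PCA score profiles of the baits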;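 on Protein-protein interaction distance between Abp1 SH3-swapped baits, to BEM1-2: Euclidean distance between DHFR-PCA score profiles of the baits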;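 on Protein-protein interaction distance between Abp1 SH3-swapped baits, to BOI1: Euclidean distance between DHFR-PCA score profiles of the baits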;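 on Protein-protein interaction distance between Abp1 SH3-swapped baits, to BZZ1-1: Euclidean distance between DHFR-PCA score profiles of the baits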
# Format: cell-based, Saccharomyces cerevisiae
# Outline: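 Yeast DHFR-PCA in which Abp1 baits, carrying their SH3 replaced by CRISPR–Cas9 with one of 27 yeast SH3s or human CTTN, HCLS1 or DBNL SH3s, were mated against 575 SH3-associated DHFR F[3] preys plus 40 negative controls. Four tests were run per PPI. Diploids were selected twice (48 h, 30 °C), then grown 4 days on PCA selection media.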
# [1] = number of PPIs, difference, Abp1 SH3-swapped with the listed SH3, Fig2D,S2F
molecule,measurement,setting,value
B1,"Protein-protein interaction distance between Abp1 SH3-swapped baits, to ABP1","Abp1 bait with swapped SH3, distance to bait with ABP1 SH3, sheet Fig2C",11.59
same,"Protein-protein interaction distance between Abp1 SH3-swapped baits, to BBC1","distance to Abp1 bait with BBC1 SH3, sheet Fig2C",9.448
same,"Protein-protein interaction distance between Abp1 SH3-swapped baits, to BEM1-1","distance to Abp1 bait with BEM1-1 SH3, sheet Fig2C",8.19
same,"Protein-protein interaction distance between Abp1 SH3-swapped baits, to BEM1-2","distance to Abp1 bait with BEM1-2 SH3, sheet Fig2C",28.06
same,"Protein-protein interaction distance between Abp1 SH3-swapped baits, to BOI1","distance to Abp1 bait with BOI1 SH3, sheet Fig2C",0.00
same,"Protein-protein interaction distance between Abp1 SH3-swapped baits, to BOI2","distance to Abp1 bait with BOI2 SH3, sheet Fig2C",6.71
same,"Protein-protein interaction distance between Abp1 SH3-swapped baits, to BUD14","distance to Abp1 bait with BUD14 SH3, sheet Fig2C",11.14
same,"Protein-protein interaction distance between Abp1 SH3-swapped baits, to BZZ1-1","distance to Abp1 bait with BZZ1-1 SH3, sheet Fig2C",8.863
same,"Protein-protein interaction distance between Abp1 SH3-swapped baits, to BZZ1-2","distance to Abp1 bait with BZZ1-2 SH3, sheet Fig2C",6.782
same,"Protein-protein interaction distance between Abp1 SH3-swapped baits, to CDC25","distance to Abp1 bait with CDC25 SH3, sheet Fig2C",21
same,"Protein-protein interaction distance between Abp1 SH3-swapped baits, to CTTN","distance to Abp1 bait with CTTN SH3, sheet Fig2C",8.701
same,"Protein-protein interaction distance between Abp1 SH3-swapped baits, to CYK3","distance to Abp1 bait with CYK3 SH3, sheet Fig2C",21.68
same,"Protein-protein interaction distance between Abp1 SH3-swapped baits, to DBNL","distance to Abp1 bait with DBNL SH3, sheet Fig2C",8.616
same,"Protein-protein interaction distance between Abp1 SH3-swapped baits, to FUS1","distance to Abp1 bait with FUS1 SH3, sheet Fig2C",12.53
same,"Protein-protein interaction distance between Abp1 SH3-swapped baits, to HCLS1","distance to Abp1 bait with HCLS1 SH3, sheet Fig2C",12.36
same,"Protein-protein interaction distance between Abp1 SH3-swapped baits, to HOF1","distance to Abp1 bait with HOF1 SH3, sheet Fig2C",26.74
same,"Protein-protein interaction distance between Abp1 SH3-swapped baits, to HSE1","distance to Abp1 bait with HSE1 SH3, sheet Fig2C",7.847
same,"Protein-protein interaction distance between Abp1 SH3-swapped baits, to LSB1","distance to Abp1 bait with LSB1 SH3, sheet Fig2C",16.11
same,"Protein-protein interaction distance between Abp1 SH3-swapped baits, to LSB3","distance to Abp1 bait with LSB3 SH3, sheet Fig2C",16.12
same,"Protein-protein interaction distance between Abp1 SH3-swapped baits, to MYO3","distance to Abp1 bait with MYO3 SH3, sheet Fig2C",14.63
same,"Protein-protein interaction distance between Abp1 SH3-swapped baits, to MYO5","distance to Abp1 bait with MYO5 SH3, sheet Fig2C",14.33
same,"Protein-protein interaction distance between Abp1 SH3-swapped baits, to NBP2","distance to Abp1 bait with NBP2 SH3, sheet Fig2C",10.48
same,"Protein-protein interaction distance between Abp1 SH3-swapped baits, to PEX13","distance to Abp1 bait with PEX13 SH3, sheet Fig2C",13.22
same,"Protein-protein interaction distance between Abp1 SH3-swapped baits, to PIN3","distance to Abp1 bait with PIN3 SH3, sheet Fig2C",13.58
same,"Protein-protein interaction distance between Abp1 SH3-swapped baits, to RVS167","distance to Abp1 bait with RVS167 SH3, sheet Fig2C",11.58
same,"Protein-protein interaction distance between Abp1 SH3-swapped baits, to SDC25","distance to Abp1 bait with SDC25 SH3, sheet Fig2C",29.16
same,"Protein-protein interaction distance between Abp1 SH3-swapped baits, to SHO1","distance to Abp1 bait with SHO1 SH3, sheet Fig2C",8.152
same,"Protein-protein interaction distance between Abp1 SH3-swapped baits, to SLA1-1","distance to Abp1 bait with SLA1-1 SH3, sheet Fig2C",23.94
same,"Protein-protein interaction distance between Abp1 SH3-swapped baits, to SLA1-2","distance to Abp1 bait with SLA1-2 SH3, sheet Fig2C",13.51
same,"Protein-protein interaction distance between Abp1 SH3-swapped baits, to SLA1-3","distance to Abp1 bait with SLA1-3 SH3, sheet Fig2C",15.75
same,"Protein-protein interaction distance between Abp1 SH3-swapped baits, to YSC84","distance to Abp1 bait with YSC84 SH3, sheet Fig2C",16.61
same,PPIs gained by Abp1 - SH3-dependent PPIs gained by Abp1,[1],1
same,SH3-dependent PPIs - SH3-dependent PPIs gained by Abp1,[1],2
same,SH3-dependent PPIs gained by Abp1,"number of PPIs, Abp1 SH3-swapped with the listed SH3, DHFR-PCA, Fig2D,S2F",1
B2,Interactions in Abp1,"number of interactions of Abp1 carrying the named SH3, sheet FigS2A-B",80
